Laboratory results: article PMC5288196

How the values were obtained:
[1] = molecular target: integrins on CHO and CHO-C2 cells (Chinese hamster (endogenous in CHO))
[2] = molecular target: C2 isoform of CD46 on CHO-C2 cells (human)
[3] = molecular target: adenovirus serotype 35 vector virions (human adenovirus serotype 35)
[4] = molecular target: adenovirus serotype 43 virions (human adenovirus serotype 43)
[5] = molecular target: C2 isoform of CD46 on CHO-C2 cells (human); remark: listed apart in the source

recombinant soluble human CD46 protein comprising the extracellular component of the receptor, sequence (P15529 35-343): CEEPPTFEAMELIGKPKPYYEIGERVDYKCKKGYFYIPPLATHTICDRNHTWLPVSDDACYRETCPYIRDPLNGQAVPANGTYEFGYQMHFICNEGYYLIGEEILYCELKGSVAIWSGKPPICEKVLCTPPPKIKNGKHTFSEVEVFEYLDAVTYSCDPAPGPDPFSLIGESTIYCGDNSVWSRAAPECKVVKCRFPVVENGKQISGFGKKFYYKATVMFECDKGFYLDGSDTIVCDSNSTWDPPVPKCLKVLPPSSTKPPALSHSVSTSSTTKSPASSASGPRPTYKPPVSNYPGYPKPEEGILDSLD

In the case of “adenovirus serotype 43 virions (complex)”, the inhibition of Ad43TL transduction of CHO and CHO-C2 cells pre-treated on ice with EDTA (10 mM), virus attached on ice [1] is reported as over 80% and the inhibition of Ad43TL transduction of CHO and CHO-C2 cells pre-treated on ice with the RGD-containing peptide GRGDSP (2 mg/ml), virus attached on ice [1] is reported as over 80%.
Substance “recombinant Ad35 fiber knob domain (domain or fragment)” has an inhibition of Ad35TL transduction of CHO-C2 cells pre-incubated with the Ad35 knob (Fluc activity); the pair blocked is m4 with m6 [2] of 90% and an inhibition of Ad43TL transduction of CHO-C2 cells pre-incubated with the Ad35 knob (Fluc activity); the pair blocked is m3 with m6 [2] of 45%.
For “recombinant soluble human CD46 protein comprising the extracellular component of the receptor (from UniProt P15529 35-343) (domain or fragment)”, the inhibition of CHO-C2 transduction by Ad35TL pre-incubated with sCD46 (Fluc activity); the pair blocked is m4 with m6 [3] was 92% and the inhibition of CHO-C2 transduction by Ad43TL pre-incubated with sCD46 (Fluc activity); the pair blocked is m3 with m6 [4] was 66%.
“recombinant Ad43 fiber knob protein (domain or fragment)” was tested, and the inhibition of Ad43TL infection of CHO-C2 cells pre-incubated with the Ad43 knob at 100 μg/ml (no inhibition; the text prints 100 mg/ml) and 1 mg/ml; the pair blocked is m3 with m6 [5] was 55%.
